# Biological target: PspR, DTG rhodopsin from Pseudomonas putida (Pseudomonas putida)
# Experiment: crystal structure
substance,measurement,value
"PspR, DTG rhodopsin from Pseudomonas putida (natural protein)",stoichiometry N,3
